# In US5760185:
# Like-named read-outs stand apart in the source and are kept apart here.
# B1: anti-FHV-1 chimeric antibody FH2 (antibody, V domains shown)
# VH: QVTLKESGPGILQPSQTLSLTCSFSGFSLSTSGMGAGWIRQPSGKGLEWLAHIWWDDVKRYNPALKSRLTISKDTSSSQVFLKIASVDTADTATYFCVRSQIYFDYDGAWFPFWGQGTLVTVSA
# VL: DIVLTQSPATLSVTPGDSVSLSCRASQSISNNLHWYQQKSHESPRLLIKYASQSISGIPSRFSGSGSGTDFTLSINSVETEDFGMYFCQQSNSWPHTFGAGTKLELKS
# B2: mouse monoclonal antibody JH2 (antibody, V domains shown)
# VH: B1 VH
# VL: DIVLTQSPATLSVTPGDSVSLSCRASQSISNNLHWYQQKSHESPRLLIKYASQSISGIPSRFSGSGSGTDFTLSINSVETEDFGMYFCQQSNSWPHTFGAGTKLELK
# Tests used:
# [1] = biological target: feline herpes virus-1 (FHV-1) viral particle, K1 strain
# [2] = biological target: feline herpes virus-1 (FHV-1) viral particle, K1 strain; remark: listed apart in the source
Binder,Minimum Effective Concentration for Neutralization [1] [µg/mL],Minimum Effective Concentration for Neutralization [2] [µg/mL]
B1,1.95,
B2,1.25,0.39
